Laboratory results as given in doi:10.1101/2023.10.13.562155 (bioRxiv, 2023).

Biological target: T1, human p75^NTR JXT domain (K273-D332) (human, UniProt P08138 273-332)
T1 sequence (looked up): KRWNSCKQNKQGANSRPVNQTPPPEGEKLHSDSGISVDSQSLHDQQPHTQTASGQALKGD
Assay: NMR titration

- binding result: binds
B1: RhoGDI NTD^S34D (A2-A60) (domain or fragment, human, UniProt P52565 2-60, looked up)
chain: AEQEPTAEQLAQIAAENEEDEHSVNYKPPAQKDIQEIQELDKDDESLRKYKEALLGRVA
